Article PMC10624894 (Nature Communications, 2023)

B1: Nb^633 (VHH)
VHH: QVQLVESGGGLVQAGASLRLSCAASGRTFSSYAMGWFRQAPGKEREFVAAISPLGQTTYYTDSVKGRFTISRDNAKNTLYLQMNSLKPEDTAVYYCAQGSLSEVRLGKSTYWGQGTQVTVSS
notes: also called nanobody 633; source: E. coli WK6, periplasmic expression, purified (SEC as the final step)
B2: Nb^643 (VHH)
VHH: QVQLVESGGGLVQPGGSLRLSCAASGIAFSRNAVGWYRQAPGKQRELVARSNTVGATNYADSVKGRFTISRDNDKSTVYLQMNSLKPEDTAVYYCNIYLYGDRTGSTLNSWGQGTQVTVSS
notes: also called nanobody 643; source: E. coli WK6, periplasmic expression, purified (SEC as the final step)
B3: Nb^632 (VHH)
VHH: QVQLVESGGGLVQAGGSLRLSCVASGGTFSNYGMGWFRQAPGKEREFVAAVRWSGDSTYYSDSVKGRFTISRDNAKNTVYLQMNGLKPEDTAVYYCARRLNWRFISNWDKESEYAYWGQGTQVTVSS
notes: also called nanobody 632; source: E. coli WK6, periplasmic expression, purified (SEC as the final step)

What follows are binders tested against EA1ΔD6 (Bacillus anthracis (strain 7702), UniProt P94217, biotin (EZ-Link NHS-PEG4-Biotin) in the BLI experiment only) (assay: BLI; […] (3 µg/ml) […]; room temperature; […]). Details: both partners purified.

| Binder | Kd [nM] |
| --- | --- |
| B1 | 13 |
| B2 | 1.9 |
| B3 | 2.2 |
